In patent publication US20260232800A1 (ADAPTIMMUNE, published 2026):
Residue numbers refer to the chain shown, from its start.

B1: TCR 3 (ADB02780_025) (TCR, V domains shown)
V domain 1: GQQLNQSPQSMFIQEGEDVSMNCTSSSIFNTWLWYKQDPGEGPVLLIALYKAGELTSNGRLTAQFGITRKDSFLNISASIPSDVGIYFCAGQASGTYKYIFGTGTRLKVLA
V domain 2: EAQVTQNPRYLITVTGKKLTVTCSQNMNHEYMSWYRQDPGLGLRQIYYSINVEVTDKGDVPEGYKVSRKEKRNFPLILESPSPNQTSLYFCASSHGTSGEQYFGPGTRLTVT
B2: TCR 5 (ADB02780_063) (TCR, V domains shown)
V domain 1: B1 V domain 1 with N30E
V domain 2: B1 V domain 2
B3: TCR 6 (ADB02780_070) (TCR, V domains shown)
V domain 1: B1 V domain 1 with N30V
V domain 2: B1 V domain 2
B4: TCR 7 (ADB02780_077) (TCR, V domains shown)
V domain 1: B1 V domain 1 with N30H
V domain 2: B1 V domain 2
B5: TCR 4 (ADB02780_062) (TCR, V domains shown)
V domain 1: B1 V domain 1 with N30L
V domain 2: B1 V domain 2
B6: TCR 9 (ADB02780_107) (TCR, V domains shown)
V domain 1: B1 V domain 1 with N30M
V domain 2: B1 V domain 2
B7: TCR 8 (ADB02780_106) (TCR, V domains shown)
V domain 1: B1 V domain 1 with N30A
V domain 2: B1 V domain 2

biological target: complex of PRAME peptide … (SEQ ID NO: 1) and HLA-A*02:01, presented on peptide-pulsed T2 cells (human); test: cell-based or functional assay

Row | EC50 (peptide concentration required to induce half-maximal T-cell activation; IFNγ supernatant ELISA, transduced primary T cells with peptide-pulsed T2 cells) [log10 M] | Binder
1 | -7.8 | B1
2 | -8.8 | B2
3 | -8.8 | B3
4 | -8.7 | B4
5 | -8.7 | B5
6 | -7.8 | B6
7 | -7.8 | B7
